Source: the Human Domainome abundance scans (Beltran et al. 2025)
± gives the uncertainty stated by the source.

B1: Cold shock protein CspB, residues 1 to 66; numbered along this chain, P41016 (parent)
chain: MQRGKVKWFNNEKGYGFIEVEGGSDVFVHFTAIQGEGFKTLEEGQEVSFEIVQGNRGPQAANVVKL
B2: POU domain, class 2, transcription factor 3, residues 186 to 260; numbered along this chain, Q9UKI9 (parent)
chain: SDLEELEKFAKTFKQRRIKLGFTQGDVGLAMGKLYGNDFSQTTISRFEALNLSFKNMCKLKPLLEKWLNDAESSP

Variants of: B1
Experiment: abundance fitness (aPCA) (normalised: wild type 0, dead -1); higher = more abundant; growth selection in yeast, the domain comes from the species named
Details: Bacillus caldolyticus

Variant | abundance fitness
G35I | -0.108 ± 0.061
G35S | -0.035 ± 0.039
N11R | -0.017 ± 0.038
G14T | -0.383 ± 0.039
G14L | -0.24 ± 0.028
G14S | -0.123 ± 0.029
E19V | 0.002 ± 0.044
V52A | 0.029 ± 0.037
V52G | -0.029 ± 0.035
E43P | 0.004 ± 0.045
K5Y | -0.072 ± 0.061
K5N | -0.029 ± 0.063
K5F | -0.008 ± 0.061
K5G | -0.222 ± 0.033
Q53V | -0.001 ± 0.04
Q53D | 0.022 ± 0.093
V6P | -0.801 ± 0.081
V6W | -0.756 ± 0.058
N62Q | 0.152 ± 0.43
I18D | -1.08 ± 0.31
I18P | -1.19 ± 0.14

Variant | abundance fitness
I18W | -0.973 ± 0.07
I18N | -0.85 ± 0.13
I18H | -0.812 ± 0.12
A32Y | -0.263 ± 0.063
A32R | -0.084 ± 0.036
A32I | -0.666 ± 0.068
A32M | -0.103 ± 0.048
A60C | -0.115 ± 0.085
A60W | -1 ± 0.14
A60V | -0.254 ± 0.031
A60H | -0.771 ± 0.099
E50L | -0.016 ± 0.035
E50T | 0.01 ± 0.06
E46A | -0.018 ± 0.052
E46H | -0.043 ± 0.059
G22L | -0.012 ± 0.028
E12F | 0.006 ± 0.034
E12G | -0.02 ± 0.041
H29R | -0.281 ± 0.11
H29I | -0.538 ± 0.16

Variants of: B2
Experiment: as above
Details: Homo sapiens

Variant | abundance fitness
SDLEELEKFAKTFKQRRIKLGFTQGDVGLAMGKLYGNDFSQTTISRFEALNLSFKNMCKLKPLLEKWLNDAESVP [S74V] | 0.039 ± 0.033
SDLEELEKFAKTFKQRRIKLGFTQGDVGLAMGKLYGNDFSQTTISRFEALNLSFKNMCKLKCLLEKWLNDAESSP [P62C] | -0.201 ± 0.062
SDLEHLEKFAKTFKQRRIKLGFTQGDVGLAMGKLYGNDFSQTTISRFEALNLSFKNMCKLKPLLEKWLNDAESSP [E5H] | 0.029 ± 0.049
SDLEILEKFAKTFKQRRIKLGFTQGDVGLAMGKLYGNDFSQTTISRFEALNLSFKNMCKLKPLLEKWLNDAESSP [E5I] | -0.022 ± 0.061
SDLEELEKFAKTFKQRRIKLGFTQGDVGLAMGKLYGNDFSQTTISRFEALNLSFKNKCKLKPLLEKWLNDAESSP [M57K] | -0.396 ± 0.064
SDLEELEKFAKTFKQRRIKLGFTQGDVGLAMGKLYGNDFSQTTISRFEALNLSFKNECKLKPLLEKWLNDAESSP [M57E] | -0.814 ± 0.09
SDLEELEKFAKTFKQRRIKLGFTQGDVGLAMGKLYGNDFSQTTISRFEALNLSFKNLCKLKPLLEKWLNDAESSP [M57L] | -0.021 ± 0.033
SDLEELEKFAKTFKQRRIKLGFTQGDVRLAMGKLYGNDFSQTTISRFEALNLSFKNMCKLKPLLEKWLNDAESSP [G28R] | -0.191 ± 0.17
SDLEELEKFAKTFKQRRIKLGFTQGDVGLAMGKLYGNDFSFTTISRFEALNLSFKNMCKLKPLLEKWLNDAESSP [Q41F] | -0.037 ± 0.06
SDLEELEKFAKTFKQRRIKLGFTQGDVGLAMGKLYGNDFSQTTISRFEALNFSFKNMCKLKPLLEKWLNDAESSP [L52F] | -0.231 ± 0.08
SDLEELEKFAKTFKQRRIKLGFTQGDVGLAMGKLYGNDFSQTTISRFEALNGSFKNMCKLKPLLEKWLNDAESSP [L52G] | -0.149 ± 0.027
SDLEELEKFAKTFKQRRIKLGFTQGDVGLAMGKLYGNDFSQTTISRFEALMLSFKNMCKLKPLLEKWLNDAESSP [N51M] | -0.022 ± 0.057
SDLEELEKFAKTFKQRRIKLGFTQGDVGLAMGKLYGNDFSQTTISRFEALYLSFKNMCKLKPLLEKWLNDAESSP [N51Y] | -0.188 ± 0.1
SDLEELEKFAKTFKQRRIKLGFTQGDVGLAMGKLYGNDFSQTTISRFEALNLSSKNMCKLKPLLEKWLNDAESSP [F54S] | -0.059 ± 0.034
SDLEELEKFAKTFKQRRIKLGFTQGDVGLAMGKLYGNDFSQTTISRFEALNLSFKNMCKLKPLLEKWLNGAESSP [D70G] | -0.006 ± 0.031
SDLEELEKFAKTFKQRRIKLGFTQGDVGLAMGKLYGNDFSQTTISRFEALNLSFKNMCQLKPLLEKWLNDAESSP [K59Q] | -0.03 ± 0.047
SDLEELEKFAKTFKQRRIKLGFTQGDVGLAMGKLYGNDFSQTTISRFEALNLSFKNMCKLKPLLENWLNDAESSP [K66N] | -0.019 ± 0.084
SDLEELEKFAKTFKQRRIKLGFTQGDVGLAMGKLYGNDFSQTTISRFEALNLSFKNMCKLKPLLEDWLNDAESSP [K66D] | 0.018 ± 0.051
SDLEELEKFAKTFKQRRIKLGFTQGDVGLAMGKLYGNDFSQTTISRFEALNLSFKNMCKLKPLLEYWLNDAESSP [K66Y] | -0.132 ± 0.1
SDLEELEKFAKTFKQRRIKLGFTQGDVGLAMGKLYGNDFSQTTISRFEALNLSFKNMCKLKPLLEGWLNDAESSP [K66G] | -0.038 ± 0.03
SDLEELEKFAKTFKQRRIKLGFTQGDVGLAMGKLYGNDFSQTTISRFEALNLSFKNMCKLKPLLETWLNDAESSP [K66T] | -0.007 ± 0.045
SDLEELEKFAKTFKQRRIKLGFTQGDVGLAMGKLYGNDFSQTTISRFEALNLSFKNMCKLKPLLEKWLNDQESSP [A71Q] | 0.036 ± 0.054
SDLEELEKFAKTFKQRRIKLGFTQGDVGLAMGKLYGNDFSQTTISRFEALNLSFKNMCKLKPLLEKWLNDYESSP [A71Y] | -0.271 ± 0.14

Variant | abundance fitness
SDLEELEKFAKTFKQRRIKLGFTQGDVGLAMGKLYGNDFSQTTISRFEALNLSFKNMCKLKPLLEKLLNDAESSP [W67L] | -0.246 ± 0.037
SDLEELEKFAKTFKQRRIKLGFTQGDVGLAMGKLYGNDFSQTTISRFEALNLSFKNMCKLKPLLFKWLNDAESSP [E65F] | -0.118 ± 0.059
SDLEELEKFAKTFKQRRIKLGFTQGDVGLAMGKLYGNDFSQTTISRFEALNLSFKNMCKLKPLLVKWLNDAESSP [E65V] | -0.095 ± 0.033
SDLEELEKFAKTFKQRRIKLGFTQGDVGLAMGWLYGNDFSQTTISRFEALNLSFKNMCKLKPLLEKWLNDAESSP [K33W] | -0.372 ± 0.22
SDLEELEKFAKTFKQRRIKLGFTQGDVGLAMGKLYGNDFSQTTISRFEALNLSFKNMCKLCPLLEKWLNDAESSP [K61C] | -0.194 ± 0.083
SDLEELEKFAKTFKQRRDKLGFTQGDVGLAMGKLYGNDFSQTTISRFEALNLSFKNMCKLKPLLEKWLNDAESSP [I18D] | -0.063 ± 0.048
SDLEELEKFAKTFKQRRLKLGFTQGDVGLAMGKLYGNDFSQTTISRFEALNLSFKNMCKLKPLLEKWLNDAESSP [I18L] | -0.025 ± 0.028
SDLEELEKFAKTFKQRRIKLGFTQGDVGLAMGKLYGNDFSQTTISRFEVLNLSFKNMCKLKPLLEKWLNDAESSP [A49V] | 0.011 ± 0.16
SDLEELEKFAKTFKQRRIKLGFTQGDVGLAMGKLYGNDFSQTTISRFEHLNLSFKNMCKLKPLLEKWLNDAESSP [A49H] | 0.014 ± 0.15
SDLEELEKFAKTFKQRRIKLGFTQGDVGLAMGKLYGNDFSQTTISRFEALNLSFKNMRKLKPLLEKWLNDAESSP [C58R] | 0 ± 0.028
SDLEELEKFAKTFKQRRIKLGFTQGDVGLAMGKLYGNDFSQTTISRFEALNLSFKNMHKLKPLLEKWLNDAESSP [C58H] | -0.052 ± 0.13
SDLEELEKFAKTFKQRRIKLGFTQGDVGWAMGKLYGNDFSQTTISRFEALNLSFKNMCKLKPLLEKWLNDAESSP [L29W] | -0.121 ± 0.031
SDLEELEKFAKTFKQRRIKLGFTQGDVGGAMGKLYGNDFSQTTISRFEALNLSFKNMCKLKPLLEKWLNDAESSP [L29G] | -0.042 ± 0.022
SDLEELEKFAKTFKQRRIKLGFTQGDVGLAMGKLYGNDFSQTTISRWEALNLSFKNMCKLKPLLEKWLNDAESSP [F47W] | -0.27 ± 0.045
SDLEELEKFAKTFKQRRIKLGFTQGDVGLAMGKLYGNDFSQTTISRFEALNLSFKNMCKLKPLLEKWLNDAEDSP [S73D] | -0.003 ± 0.067
SDLEELEKFAKTFKQRRIKLGFTQGDVGLAMGKLYGVDFSQTTISRFEALNLSFKNMCKLKPLLEKWLNDAESSP [N37V] | -0.027 ± 0.024
SDLEELEKFAKTFKQRRIKLGFTQGDVGLAMGKLYGNDFSQTTISRFEADNLSFKNMCKLKPLLEKWLNDAESSP [L50D] | -0.204 ± 0.082
SDLEELEKFAKTFKQRRIKLGFTQGDVGLAMGKLYGNDFSQTTISRFEALNLSFKNMCKLKPILEKWLNDAESSP [L63I] | 0.072 ± 0.061
SDLEELEKFAKTFKQRRIKLGFTQGDVGLAMGKLYGNDFSQTTISPFEALNLSFKNMCKLKPLLEKWLNDAESSP [R46P] | -0.986 ± 0.23
SDLEELEKFAKTFKQRRIKLGFTQGDVGLAMGKLYGNDFSQTTISIFEALNLSFKNMCKLKPLLEKWLNDAESSP [R46I] | -0.745 ± 0.26
SDLEELEKFAKTFKQRRIKLGFTQGDVGLAMGKLYGNDFSQTTISEFEALNLSFKNMCKLKPLLEKWLNDAESSP [R46E] | 0.035 ± 0.036
SDLEELEKFAKTFKQRRIKLGFTQGDVGLAMGKLYGNDFSQTTISRFEALNLSFVNMCKLKPLLEKWLNDAESSP [K55V] | -0.006 ± 0.034
